Molecular target: mAb LGIII 147.4.1
Experiment: direct ELISA, capture by mAb LG III 147.4.1, detection with FL119

Question: Which concentration at which absorbance is saturated does the source give for “HLA-A*1101/LMP2340-349-fused β2m (from UniProt P61769 21-119) (peptide-MHC)” here?
Answer: 4 nCM

Source: patent publication US20130052733A1
